{"source": "patent US20120128767A1", "about": "“THERAPEUTIC CALCIUM PHOSPHATE PARTICLES AND METHODS OF MAKING AND USING SAME” (priority 2008, published 2012)", "origin": "cited, not measured here", "note": "Read-outs that look alike come from different tables or passages of the source.", "data": [{"substance": "insulin", "values": [{"measurement": "absorption efficiency", "setting": "insulin added to preformed calcium phosphate particles", "result": "about 40%"}, {"measurement": "absorption efficiency", "setting": "insulin mixed during the particle formation", "result": "about 89%"}]}]}
